These results are taken from paper PMC2921341, “Interaction of Serum- and Glucocorticoid Regulated Kinase 1 (SGK1) with the WW-Domains of Nedd4-2 Is Required for Epithelial Sodium Channel Regulation” (PLoS ONE, 2010).

In assay [1] the target is βENaC PY motif peptide (Homo sapiens) (UniProt P51168). Particulars: cited from earlier work.
The target of assay [2] is βhENaC PY-motif peptide (human). The assay can be described thus: SPR; BIAcore 2000; peptide immobilised on Sensor Chip CM5 by amine chemistry; isolated WW-domains injected at 20 µl/min in HBS-EP; KD estimated from steady state equilibrium responses.
For assay [3], the target named is SGK PY-motif peptide (human). The assay is described as above.

Chain of Nedd4 WW2-4 (P46934 767-925): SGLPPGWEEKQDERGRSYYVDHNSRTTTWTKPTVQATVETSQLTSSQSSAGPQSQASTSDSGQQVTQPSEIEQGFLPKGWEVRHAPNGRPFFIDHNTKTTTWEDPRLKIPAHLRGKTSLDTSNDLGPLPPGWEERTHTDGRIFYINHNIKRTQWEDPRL

A word on the Kd: it is the constant that tells how readily two partners part at equilibrium. In the case of Nedd4 WW2-4 (from UniProt P46934), the Kd in assay [1] was 65 µM.

Regarding “Nedd4-2 WW3 (isolated WW-domain, GST removed) (domain or fragment)”, the Kd in assay [2] was 11.1 µM; in assay [3], 250 µM.
